Our source for the Kd and stoichiometry N values is publication PMC2755859.

pKd: −log10 of the molar value.

One assay deals with PRMT5cat (human) (UniProt O14744). Nature of the assay: AUC.
The target in a further assay is pICln (UniProt P54105). Nature of the assay: AUC.

One may read the pKd as the negative decadic logarithm of the Kd, by convention in mol/L. Low readings indicate a large Kd, high ones a small Kd. Usually stoichiometry N stands for a count of units in the complex or per binding partner.

Sequence of pICln (P54105 whole entry): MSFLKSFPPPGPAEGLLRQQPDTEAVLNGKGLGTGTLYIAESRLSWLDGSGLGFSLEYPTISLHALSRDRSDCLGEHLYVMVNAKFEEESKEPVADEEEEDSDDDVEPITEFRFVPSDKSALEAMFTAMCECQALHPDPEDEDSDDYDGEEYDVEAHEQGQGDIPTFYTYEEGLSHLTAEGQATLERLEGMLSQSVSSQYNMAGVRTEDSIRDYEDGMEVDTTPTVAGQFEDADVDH
Sequence of SmD3 (P62318 whole entry): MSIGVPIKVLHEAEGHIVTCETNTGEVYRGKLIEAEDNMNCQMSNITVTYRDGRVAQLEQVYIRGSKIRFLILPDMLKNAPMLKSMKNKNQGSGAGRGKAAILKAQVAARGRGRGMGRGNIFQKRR

Take “PRMT5cat (from UniProt O14744 296-637) (domain or fragment)”: in the assay with PRMT5cat (human), the negative-log Kd (pKd) is 4.70 and the stoichiometry N came out at 2.

“SmD3 (from UniProt P62318 1-126) (natural protein)”: the stoichiometry N in the assay with pICln turned out to be 1.
